Measurements reported in the Human Domainome abundance scans (Beltran et al. 2025).
± gives the uncertainty stated by the source.

B1: Pre-mRNA-processing factor 40 homolog B, residues 274 to 332; numbered along this chain, Q6NWY9 (parent)
chain: SNREKAKQAFKELLRDKAVPSNASWEQAMKMVVTDPRYSALPKLSEKKQAFNAYKAQRE

Variants of: B1
Experiment: abundance fitness (aPCA) (normalised: wild type 0, dead -1); higher = more abundant; growth selection in yeast, the domain comes from the species named
Details: Homo sapiens

Row | Variant | abundance fitness
1 | M29A | -0.125 ± 0.075
2 | M29E | -0.102 ± 0.1
3 | M29Y | -0.014 ± 0.14
4 | M29D | -0.097 ± 0.1
5 | M29V | -0.114 ± 0.063
6 | M29P | -0.103 ± 0.1
7 | M29Q | 0.047 ± 0.11
8 | M29K | 0.166 ± 0.094
9 | M29L | -0.216 ± 0.093
10 | M29C | -0.203 ± 0.1
11 | M29S | -0.136 ± 0.086
12 | M29R | -0.078 ± 0.059
13 | M29F | -0.295 ± 0.17
14 | M29G | -0.237 ± 0.058
15 | M29T | -0.282 ± 0.088
16 | A18H | 0.074 ± 0.14
17 | A18I | -0.536 ± 0.13
18 | A18Q | 0.101 ± 0.092
19 | A18M | -0.096 ± 0.11
20 | A18D | 0.045 ± 0.14
21 | A18W | -0.473 ± 0.085
22 | A18K | -0.043 ± 0.086
23 | A18C | 0.007 ± 0.11
24 | A18E | -0.012 ± 0.069

Row | Variant | abundance fitness
25 | A18R | -0.035 ± 0.058
26 | A18Y | -0.656 ± 0.19
27 | A18T | -0.282 ± 0.097
28 | A18F | -0.539 ± 0.18
29 | A18L | -0.127 ± 0.069
30 | A18P | -0.606 ± 0.096
31 | A18N | -0.067 ± 0.15
32 | A18V | -0.367 ± 0.065
33 | A18S | -0.089 ± 0.073
34 | S21F | 0.029 ± 0.11
35 | S21K | 0.134 ± 0.12
36 | S21T | 0.06 ± 0.093
37 | S21P | -0.146 ± 0.1
38 | S21L | 0.109 ± 0.087
39 | S21Q | 0.014 ± 0.13
40 | S21W | -0.055 ± 0.13
41 | S21C | -0.001 ± 0.1
42 | S21Y | 0.005 ± 0.12
43 | S21V | 0.089 ± 0.073
44 | S21M | 0.074 ± 0.11
45 | S21N | -0.492 ± 0.16
46 | S21G | -0.103 ± 0.074
47 | S21E | -0.054 ± 0.12
48 | S21R | -0.083 ± 0.073

Row | Variant | abundance fitness
49 | S21D | -0.077 ± 0.1
50 | S21H | -0.037 ± 0.47
51 | D16P | -0.875 ± 0.12
52 | D16F | -1.05 ± 0.11
53 | D16K | -0.699 ± 0.12
54 | D16V | -0.716 ± 0.073
55 | D16W | -0.579 ± 0.1
56 | D16T | -0.351 ± 0.085
57 | D16M | -1.03 ± 0.17
58 | D16L | -0.584 ± 0.075
59 | D16H | -1.03 ± 0.18
60 | D16C | -0.933 ± 0.1
61 | D16R | -0.7 ± 0.064
62 | D16A | -0.461 ± 0.079
63 | D16Y | -0.888 ± 0.13
64 | D16Q | -0.443 ± 0.12
65 | D16S | -0.486 ± 0.069
66 | D16N | -1.23 ± 0.19
67 | N22R | -0.505 ± 0.06
68 | N22D | 0.05 ± 0.08
69 | N22Q | -0.217 ± 0.16
70 | N22F | -0.906 ± 0.24
71 | N22H | -0.179 ± 0.17
72 | N22T | -0.014 ± 0.082

Row | Variant | abundance fitness
73 | N22L | -0.446 ± 0.089
74 | N22E | 0.03 ± 0.088
75 | N22W | -0.063 ± 0.1
76 | N22S | -0.036 ± 0.074
77 | N22C | -0.211 ± 0.13
78 | N22M | -0.623 ± 0.19
79 | N22P | -0.664 ± 0.13
80 | N22Y | -0.57 ± 0.15
81 | N22I | -1.04 ± 0.31
82 | N22K | -0.553 ± 0.11
83 | N22G | -0.217 ± 0.062
84 | K30D | -0.411 ± 0.12
85 | K30A | -0.061 ± 0.078
86 | K30E | 0.067 ± 0.12
87 | K30C | -0.423 ± 0.16
88 | A23K | -0.459 ± 0.1
89 | A23Y | -0.254 ± 0.12
90 | A23M | -0.142 ± 0.096
91 | A23R | -0.506 ± 0.068
92 | A23Q | -0.528 ± 0.093
93 | A23S | -0.313 ± 0.072
94 | A23C | -0.206 ± 0.083
95 | A23T | -0.467 ± 0.1
96 | A23V | -0.222 ± 0.065

Row | Variant | abundance fitness
97 | A23H | -0.591 ± 0.18
98 | A23N | -0.335 ± 0.12
99 | A23D | -0.522 ± 0.091
100 | A23I | -0.122 ± 0.13
101 | A23F | -0.348 ± 0.14
102 | A23G | -0.464 ± 0.054
103 | A23P | -0.533 ± 0.13
104 | F10Y | -0.282 ± 0.16
105 | F10W | -0.869 ± 0.11
106 | F10V | -0.511 ± 0.075
107 | Q27W | -1 ± 0.095
108 | Q27I | -0.301 ± 0.2
109 | Q27F | -0.884 ± 0.23
110 | Q27C | -0.422 ± 0.11
111 | Q27P | -0.531 ± 0.2
112 | Q27S | -0.406 ± 0.11
113 | Q27E | 0.115 ± 0.11
114 | Q27H | -0.096 ± 0.24
115 | Q27G | -0.358 ± 0.059
116 | Q27Y | -0.524 ± 0.15
117 | Q27M | -0.297 ± 0.14
118 | Q27R | -0.342 ± 0.059
119 | Q27V | -0.297 ± 0.091
120 | Q27N | -0.174 ± 0.15

Row | Variant | abundance fitness
121 | Q27A | -0.143 ± 0.091
122 | Q27T | 0.027 ± 0.11
123 | Q27K | -0.292 ± 0.12
124 | S24M | -0.591 ± 0.093
125 | S24P | -0.169 ± 0.13
126 | S24I | -0.65 ± 0.19
127 | S24E | -0.306 ± 0.088
128 | S24W | -1 ± 0.13
129 | S24R | -0.671 ± 0.079
130 | S24C | -0.371 ± 0.16
131 | S24H | -0.344 ± 0.15
132 | S24V | -0.644 ± 0.067
133 | S24F | -0.654 ± 0.13
134 | S24A | -0.238 ± 0.063
135 | S24Q | -0.422 ± 0.1
136 | S24Y | -0.74 ± 0.18
137 | S24N | -0.447 ± 0.2
138 | S24G | -0.366 ± 0.064
139 | S24D | -0.355 ± 0.12
140 | S24K | -0.229 ± 0.091
141 | W25R | -0.189 ± 0.057
142 | W25H | -0.347 ± 0.22
143 | W25L | -0.242 ± 0.087
144 | W25Y | -0.18 ± 0.12

Row | Variant | abundance fitness
145 | W25T | -0.149 ± 0.093
146 | W25P | -0.237 ± 0.11
147 | W25S | -0.13 ± 0.075
148 | W25K | -0.221 ± 0.14
149 | W25A | -0.244 ± 0.082
150 | W25N | 0.038 ± 0.12
151 | W25E | -0.095 ± 0.092
152 | W25C | -0.109 ± 0.12
153 | W25V | -0.291 ± 0.073
154 | W25Q | -0.36 ± 0.3
155 | W25G | -0.161 ± 0.055
156 | W25F | 0.249 ± 0.12
157 | W25D | -0.114 ± 0.1
158 | W25I | -0.251 ± 0.18
159 | K17A | -0.106 ± 0.072
160 | K17C | -0.38 ± 0.12
161 | K17Q | -0.213 ± 0.13
162 | K17L | -0.605 ± 0.089
163 | K17N | -0.07 ± 0.15
164 | K17I | -0.651 ± 0.15
165 | K17T | -0.429 ± 0.091
166 | K17H | -0.239 ± 0.2
167 | K17D | -0.72 ± 0.13
